Kd data for 2 molecules are collected here from paper PMC11341029 (PLOS Pathogens, 2024).

The term Kd denotes the free concentration of one partner at which half of the binding sites on the other are occupied at equilibrium, for simple one-to-one binding. Low readings indicate a tighter complex, high ones a looser complex.

In one test the target is T1, SLC39A9 (Homo sapiens, UniProt Q9NUM3).
T1 chain: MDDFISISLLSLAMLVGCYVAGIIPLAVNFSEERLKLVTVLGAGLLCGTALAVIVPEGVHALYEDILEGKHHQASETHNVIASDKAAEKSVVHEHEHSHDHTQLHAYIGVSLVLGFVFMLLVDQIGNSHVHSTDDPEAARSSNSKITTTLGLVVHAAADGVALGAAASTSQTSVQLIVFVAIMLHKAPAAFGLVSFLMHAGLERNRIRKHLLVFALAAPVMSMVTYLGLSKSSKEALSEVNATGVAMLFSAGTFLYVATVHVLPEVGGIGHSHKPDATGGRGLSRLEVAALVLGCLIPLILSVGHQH
As to the kind of experiment: SPR. Background: SPR reads the build-up and loss of mass on a sensor chip optically.

The target of the next test is T2, NPC1-10×His-Flag (human, UniProt O15118 23-1278).
T2 construct: also called purified NPC1-Flag; full-length NPC1 protein
T2 sequence (looked up): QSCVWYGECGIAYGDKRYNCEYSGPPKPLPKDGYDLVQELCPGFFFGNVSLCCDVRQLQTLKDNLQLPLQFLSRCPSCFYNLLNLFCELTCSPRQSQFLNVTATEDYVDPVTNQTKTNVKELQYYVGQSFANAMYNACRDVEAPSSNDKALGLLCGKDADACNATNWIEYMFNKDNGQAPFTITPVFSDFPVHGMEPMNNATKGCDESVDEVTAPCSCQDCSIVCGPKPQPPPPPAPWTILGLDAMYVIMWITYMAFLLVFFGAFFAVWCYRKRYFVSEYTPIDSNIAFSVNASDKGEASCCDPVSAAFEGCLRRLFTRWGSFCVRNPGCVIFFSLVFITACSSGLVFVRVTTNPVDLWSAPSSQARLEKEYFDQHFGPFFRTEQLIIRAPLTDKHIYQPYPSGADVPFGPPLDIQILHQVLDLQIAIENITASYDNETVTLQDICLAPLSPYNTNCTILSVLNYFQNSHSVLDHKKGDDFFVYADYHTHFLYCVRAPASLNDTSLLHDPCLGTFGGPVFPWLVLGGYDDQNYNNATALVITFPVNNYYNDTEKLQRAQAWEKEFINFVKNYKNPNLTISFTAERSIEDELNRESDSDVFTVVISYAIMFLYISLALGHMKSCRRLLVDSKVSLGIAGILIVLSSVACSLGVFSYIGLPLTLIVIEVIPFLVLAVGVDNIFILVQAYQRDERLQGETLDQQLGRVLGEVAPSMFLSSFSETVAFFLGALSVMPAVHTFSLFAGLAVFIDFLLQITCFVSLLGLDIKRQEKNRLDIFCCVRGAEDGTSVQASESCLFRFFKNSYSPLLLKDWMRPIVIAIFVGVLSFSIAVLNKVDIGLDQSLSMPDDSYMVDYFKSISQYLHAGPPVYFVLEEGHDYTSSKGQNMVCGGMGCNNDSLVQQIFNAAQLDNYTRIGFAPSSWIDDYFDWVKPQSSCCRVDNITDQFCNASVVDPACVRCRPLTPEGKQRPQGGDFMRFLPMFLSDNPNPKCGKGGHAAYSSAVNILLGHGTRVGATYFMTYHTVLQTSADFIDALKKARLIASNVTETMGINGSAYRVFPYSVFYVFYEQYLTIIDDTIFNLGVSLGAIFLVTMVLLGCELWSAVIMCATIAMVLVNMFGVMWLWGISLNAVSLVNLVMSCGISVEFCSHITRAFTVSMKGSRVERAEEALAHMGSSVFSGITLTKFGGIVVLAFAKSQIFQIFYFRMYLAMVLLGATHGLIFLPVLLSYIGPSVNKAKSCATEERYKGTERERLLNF
The test is described as follows: SPR. As to conditions: both partners purified.

B1: EBOV GP (protein)
chain: IPLGVIHNSTLQVSDVDKLVCRDKLSSTNQLRSVGLNLEGNGVATDVPSATKRWGFRSGVPPKVVNYEAGEWAENCYNLEIKKPDGSECLPAAPDGIRGFPRCRYVHKVSGTGPCAGDFAFHKEGAFFLYDRLASTVIYRGTTFAEGVVAFLILPQAKKDFFSSHPLREPVNATEDPSSGYYSTTIRYQATGFGTNETEYLFEVDNLTYVQLESRFTPQFLLQLNETIYTSGKRSNTTGKLIWKVNPEIDTTIGEWAFWETKKNLTRKIRSEELSFTVVSNGAKNISGQSPARTSSDPGTNTTTEDHKIMASENSSAMVQVHSQGREAAVSHLTTLATISTSPQSLTTKPGPDNSTHNTPVYKLDISEATQVEQHHRRTDNDSTASDTPSATTAAGPPKAENTNTSKSTDFLDPATTTSPQNHSETAGNNNTHHQDTGEESASSGKLGLITNTIAGVAGLITGGRRTRREAIVNAQPKCNPNLHYWTTQDEGAAIGLAWIPYFGPAAEGIYIEGLMHNQDGLICGLRQLANETTQALQLFLRATTELRTFSILNRKAIDFLLQRWGGTCHILGPDCCIEPHDWTKNITDKIDQIIHDFVDKTLPDQGDNDNWWTGWRQWIPAGIGVTGVIIAVIALFCICKFVF
As for B1, the Kd with SLC39A9 turned out to be 3 µM.

B2: primed EBOV GP (GPcl) (domain or fragment)
chain 1: IPLGVIHNSTLQVSDVDKLVCRDKLSSTNQLRSVGLNLEGNGVATDVPSATKRWGFRSGVPPKVVNYEAGEWAENCYNLEIKKPDGSECLPAAPDGIRGFPRCRYVHKVSGTGPCAGDFAFHKEGAFFLYDRLASTVIYRGTTFAEGVVAFLILPQ
chain 2: EAIVNAQPKCNPNLHYWTTQDEGAAIGLAWIPYFGPAAEGIYIEGLMHNQDGLICGLRQLANETTQALQLFLRATTELRTFSILNRKAIDFLLQRWGGTCHILGPDCCIEPHDWTKNITDKIDQIIHDFVDKTLPDQGDNDNWWTGWRQ
In the test with NPC1-10×His-Flag, B2 returned a dissociation constant Kd of 18.5 µM.
